# Test results published in US10865391B2, “Glutamate dehydrogenase mutants and their application in preparation of L-phosphinothricin” (ZHEJIANG UNIVERSITY, priority 2018, dated 2020).
# B1: BtGluDH-A155G: BtGluDH mutant A155G, SEQ ID NO. 19 (protein)
# chain: MVTENTQGKEQKQESMNLLQSTQTVIKEALEKLGYQESMYELLKEPLRVLTVRIPVRMDNGEVKVFTGYRAQHNDAVGPTKGGIRFHPDVTEDEVKALSIWMSLKAGIVDLPYGGGKGGIICDPREMSFRELERLSRGYVRAVSQIVGPTKDIPGPDVFTNSQIMAWMMDEYSRIREFDSPGFITGKPIALGGSHGRETATAKGVTICIREAAKRRGIDLKGARVVVQGFGNAGSYLSKFMHDAGAKVVGISDAYGALYDPNGLDIDYLLDRRDSFGTVTKLFTNTITNKELLELDCDILVPAAIENQITAANAHNIKAKIVVEAANGPTTLEATKILTERGILLVPDVLASAGGVTVSYFEWVQNNQGYYWSEEEVQEKLEKVMVKAFENVYSLAQTRRVDMRLAAYMVGVRKMAEASRFRGWV
# modifications: Brevibacillus thermoruber glutamate dehydrogenase mutant
# B2: PpGluDH-A167G: PpGluDH mutant, alanine 167 to glycine, SEQ ID NO. 1 (protein)
# chain: MSTMIESVDNFLARLKQRDPGQPEFHQAVEEVLRTLWPFLEANPHYLQSGILERMVEPERAVLFRVSWVDDQGKVQVNRGYRIQMSSAIGPYKGGLRFHPSVNLSVLKFLAFEQVFKNSLTSLPMGGGKGGSDFDPKGKSDAEVMRFCQAFMSELYRHIGADCDVPGGDIGVGAREIGFMFGQYKRLANQFTSVLTGKGMTYGGSLIRPEATGYGCVYFAEEMLKRQDKRIDGRRVAVSGSGNVAQYAARKVMDLGGKVISLSDSEGTLYAEAGLTDAQWDALMELKNVKRGRISELAGQFGLEFRKGQTPWSLPCDIALPCATQNELGAEDARTLLRNGCICVAEGANMPTTLEAVDIFLDAGILYAPGKASNAGGVAVSGLEMSQNAMRLLWTAGEVDSKLHNIMQSIHHACVHYGEEADGRINYVKGANIAGFVKVADAMLAQGVV
# modifications: Pseudomonas putida glutamate dehydrogenase mutant
# B3: CsGluDH-A164G: CsGluDH mutant A164G, SEQ ID NO. 17 (protein)
# chain: MSKYVDRVIAEVEKKYADEPEFVQTVEEVLSSLGPVVDAHPEYEEVALLERMVIPERVIEFRVPWEDDNGKVHVNTGYRVQFNGAIGPYKGGLRFAPSVNLSIMKFLGFEQAFKDSLTTLPMGGAKGGSDFDPNGKSDREVMRFCQAFMTELYRHIGPDIDVPGGDLGVGAREIGYMYGQYRKIVGGFYNGVLTGKARSFGGSLVRPEATGYGSVYYVEAVMKHENDTLVGKTVALAGFGNVAWGAAKKLAELGAKAVTLSGPDGYIYDPEGITTEEKINYMLEMRASGRNKVQDYADKFGVQFFPGEKPWGQKVDIIMPCATQNDVDLEQAKKIVANNIKYYIEVANMPTTNEALRFLMQQPNMVVAPSKAVNAGGVLVSGFEMSQNSERLSWTAEEVDSKLHQVMTDIHDGSAAAAERYGLGYNLVAGANIVGFQKIADAMMAQGIAW
# modifications: Clostridium symbiosum glutamate dehydrogenase mutant
# B4: CsGluDH-V378A: CsGluDH mutant V378A, SEQ ID NO. 18 (protein)
# chain: MSKYVDRVIAEVEKKYADEPEFVQTVEEVLSSLGPVVDAHPEYEEVALLERMVIPERVIEFRVPWEDDNGKVHVNTGYRVQFNGAIGPYKGGLRFAPSVNLSIMKFLGFEQAFKDSLTTLPMGGAKGGSDFDPNGKSDREVMRFCQAFMTELYRHIGPDIDVPAGDLGVGAREIGYMYGQYRKIVGGFYNGVLTGKARSFGGSLVRPEATGYGSVYYVEAVMKHENDTLVGKTVALAGFGNVAWGAAKKLAELGAKAVTLSGPDGYIYDPEGITTEEKINYMLEMRASGRNKVQDYADKFGVQFFPGEKPWGQKVDIIMPCATQNDVDLEQAKKIVANNIKYYIEVANMPTTNEALRFLMQQPNMVVAPSKAVNAGGALVSGFEMSQNSERLSWTAEEVDSKLHQVMTDIHDGSAAAAERYGLGYNLVAGANIVGFQKIADAMMAQGIAW
# modifications: Clostridium symbiosum glutamate dehydrogenase mutant
# Columns and labels:
# Type in all cases: biochemical
# [1] = Standard enzyme activity measurement toward PPO, crude enzyme (per volume fermentation broth); details: toward PPO; for Enzyme activity of mutants (U/mL): standard system, N.D. = no detectable activity
# Method: The preserved recombinant E. coli is streaked onto the plate for activation. Single colonies are picked and inoculated into 5 mL LB liquid medium containing 50 μg/mL kanamycin and cultured at 37° C. for 12 h. The culture is transferred to 50 mL fresh LB liquid medium containing 50 μg/mL kanamycin at a 2% inoculum, and then incubated at 37° C. until the OD600 reaches 0.6; after that, add IPTG to a final concentration of 0.5 mM, and then proceed with induction culture under the temperature of 18° C. for 16 h.
# After the cultivation, the culture is centrifuged at 10000 rpm for 10 min; discard supernatant, and collect cells. The harvested cells are washed for 2 times using pH 7.5 50 mM phosphate buffer. After that, the cells are re-suspend into the pH 7.5 phosphate buffer and disrupted ultrasonically (400W for 30 times, Ultrasonic time is 3 s, and the interval is 7 s). The cell disrupted solution is centrifuged at 12000 g for 5 min at 4° C. to remove the precipitate, and the supernatant obtained is the crude enzyme containing recombinant glutamate dehydrogenase
# (§1) The standard enzyme activity measurement system: Appropriate amount of enzyme, 100 mM substrate, 10 mM coenzyme (NADH or NADPH), 500 mM NH4^+ ((NH4)2SO4); total system volume is up to 400 μL; reaction medium is pH 7.5 phosphate buffer. 35° C. reaction for 10 min; after that, add 40 uL 5 M NaOH to terminate reaction.
# (§2) Definition of enzyme activity unit: The quantity of enzyme as required by generation of 1 μmol L-phosphinothricin per minute under standard reaction conditions.
# Proceed with induction culture of constructed mutants, and prepare crude enzyme solution.
# [2] = Preparation of L-phosphinothricin by coupling glutamate dehydrogenase with glucose dehydrogenase; details: 500 mM PPO
# Method: The reaction process is monitored by measuring the concentration of substrate in the reaction solution applying high-performance liquid chromatography (HPLC). HPLC analysis method is stated as follows: column model: Pntulips® QS-C18, 5 μm, 4.6 mm×250 mm. Mobile phase: 50 mM (NH4)2HPO4, added 1% of 10% tetrabutyl ammonium hydroxide, adjusted to pH 3.6 with 50% phosphoric acid(mass fraction), added 8% acetonitrile. Detective wave length is 205 nm; flow rate is 1.0 mL/min. Column temperature is 40° C.
# The enantiomeric excess and concentration of product are determined through pre-column derivatization high-performance liquid chromatography; the specific analysis method is stated as follows:
# (1) HPLC condition: column model: Pntulips® QS-C18, 5 μm, 4.6 mm×250 mm. Mobile phase: 50 mM Sodium acetate: Acetonitrile=8: 0.5 (v/v). Detective wave length: 338 nm. Flow rate: 0.85 mL/min. Column temperature: 30° C.
# (2) Derivatization reagent: Weigh 0.03 g phthalaldehyde and 0.1 g N-acetyl-L-cysteine, and use 400 uL ethanol for solubilization; after that, add 4 mL 0.2 mol/L borate buffer (pH 9.8) and shake for dissolution prior to storage in the fridge under the temperature of 4° C. (no more than 4 days).
# (3) Derivatization reaction and analysis: Add 150 μL derivatization reagent into 100 μL sample, mix and incubate at 25° C. for 5 min, and then inject 20 μL for analysis.
# Culture recombinant E. coli expressing glutamate dehydrogenase (PpGluDH) and glucose dehydrogenase (BsGDH-2M, SEQ ID NO. 21) with method in Step 3 of Embodiment 1; proceed with centrifugal collection of cells and ultrasonic cell disruption to prepare crude enzyme solution.
# (§3) The final volume of the reaction is 30 mL; each sample contains 500 mM substrate PPO, 600 mM glucose, 250 mM (NH4)2SO4 and 0.5 mM NADP^+. Concentration of glutamate dehydrogenase cells (dry weight) is 1.0 g/L; concentration of glucose dehydrogenase cells (dry weight) is 1.25 g/L. Use water bath to control the reaction temperature at 35° C.; titrate ammonia to control pH at 7.5 during the reaction process. Use non-chiral HPLC to determine residual concentration of PPO after reaction for 6 h; meanwhile, use pre-column derivatization HPLC to determine the concentration and ee value of formed L-phosphinothricin.
# as §3, with “0.5” for “1.0”
# as §3, with “NAD^+.” for “NADP^+.”, “1.25” for “1.0”
# The final volume of the reaction is 30 mL; each sample contains 500 mM substrate PPO, 600 mM glucose, 250 mM (NH4)2SO4 and 0.5 mM NAD^+. Concentration of glutamate dehydrogenase cells (dry weight) is 1.25 g/L; concentration of glucose dehydrogenase cells (dry weight) is 1.25 g/L. Use water bath to control the reaction temperature at 35° C.; titrate ammonia to control pH at 7.5 during the reaction process. […]
# [3] = Specific activity of pure enzyme toward PPO
# Method: The recombinant E. coli carrying glutamate dehydrogenase gene used in the present invention is constructed and kept by our laboratory. The vector used is pET-28a(+), and the host used is E. coli BL21(DE3). NI-NTA resin (HisPur™ Ni-NTA Resin) used for protein purification is purchased from Thermo Scientific™; protein purification is carried out in reference to specifications.
# as §1, §2
# Meanwhile, specific activity of pure enzyme obtained through purification has also been measured. As measured, specific activity of pure protein of wild type PpGluDH is 0.31 U/mg; specific activity of PpGluDH-A167G is 38.13 U/mg, which is 123 times higher than that of wild type; specific activity of PpGluDH-V378A is 35.96 U/mg, which is 116 times higher than that of wild type.
# [4] = NAD+, GluDH cells 1.25 g/L, 50° C., pH 7.5, 6 h
# [5] = NADP+, GluDH cells 1.0 g/L, 35° C., pH 7.5, 6 h
# [6] = NAD+, GluDH cells 1.25 g/L, 35° C., pH 7.5, 6 h
# [7] = NAD+, GluDH cells 1.25 g/L, 35° C., pH 7.5, 12 h
molecule,measurement,setting,value
B1,Enzyme activity of mutants (U/mL),[1]; crude enzyme,0.50 U/mL
same,concentration of formed L-phosphinothricin,[2]; [4],80.3 g/L
same,residual PPO,[2]; [4],1.4 mM
same,substrate conversion,[2]; [4],99.7%
B2,Enzyme activity (per volume fermentation broth),"[1]; 100 mM substrate, 10 mM coenzyme, 500 mM NH4+, pH 7.5, 35° C., 10 min, crude enzyme",14.85 U/mL
same,"Enzyme activity (per volume fermentation broth), times higher than that of wild type",[1]; versus wild type PpGluDH,135 times
same,Specific activity of pure enzyme,[3]; purified protein,38.13 U/mg
same,"Specific activity, times higher than that of wild type",[3]; versus wild type PpGluDH,123 times
same,concentration of formed L-phosphinothricin,[2]; [5],83.7 g/L
same,residual PPO,[2]; [5],0.9 mM
same,substrate conversion,[2]; [5],99.8%
B3,Enzyme activity of mutants (U/mL),[1]; crude enzyme,2.61 U/mL
same,concentration of formed L-phosphinothricin,[2]; [6],79.6 g/L
same,residual PPO,[2]; [6],0 mM
same,substrate conversion,[2]; [6],100%
B4,Enzyme activity of mutants (U/mL),[1]; crude enzyme,1.76 U/mL
same,concentration of formed L-phosphinothricin,[2]; [7],78.5 g/L
same,residual PPO,[2]; [7],1.8 mM
same,substrate conversion,[2]; [7],99.6%
